In PMC7111020 (2007) one finds Kd data, which are given here for two molecules.

As usually defined, the Kd is the free concentration of one partner at which half of the binding sites on the other are occupied at equilibrium, for simple one-to-one binding.

Series [1] deals with the molecule itself. Nature of the series: sedimentation equilibrium analytical ultracentrifugation.
Series [2] addresses T1, mTIM-1 (Mus musculus, UniProt Q5QNS5).
T1 chain: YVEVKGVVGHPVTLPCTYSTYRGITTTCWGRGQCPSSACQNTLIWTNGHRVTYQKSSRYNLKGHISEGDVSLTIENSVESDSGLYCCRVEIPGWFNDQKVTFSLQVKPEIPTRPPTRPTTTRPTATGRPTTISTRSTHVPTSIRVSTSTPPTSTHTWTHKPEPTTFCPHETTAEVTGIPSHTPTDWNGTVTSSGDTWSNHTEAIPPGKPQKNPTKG
Description: SPR. For orientation: SPR reads the build-up and loss of mass on a sensor chip optically.

B1: mTIM-2 20-129 (protein)
chain: ESHTAVQGLAGHPVTLPCIYSTHLGGIVPMCWGLGECRHSYCIRSLIWTNGYTVTHQRNSLYQLKGNISEGNVSLTIENTVVGDGGPYCCVVEIPGAFHFVDYMLEVKPE
For B1, the dissociation constant (Kd) in series [1] is approximately 300 µM.

B2: mTIM-1 ECD (protein)
chain: YVEVKGVVGHPVTLPCTYSTYRGITTTCWGRGQCPSSACQNTLIWTNGHRVTYQKSSRYNLKGHISEGDVSLTIENSVESDSGLYCCRVEIPGWFNDQKVTFSLQVKPEIPTRPPTRPTTTRPTATGRPTTISTRSTHVPTSIRVSTSTPPTSTHTWTHKPEPTTFCPHETTAEVTGIPSHTPTDWNGTVTSSGDTWSNHTEAIPPGKPQKNPTKG
Regarding B2, the Kd in series [2] is approximately 0.6 µM.
